{"source": "patent EP3919077A1", "target": "human FcγRIIB (CD32B) on peripheral B cells (human) (UniProt P31994)", "sequence (P31994 43-310)": "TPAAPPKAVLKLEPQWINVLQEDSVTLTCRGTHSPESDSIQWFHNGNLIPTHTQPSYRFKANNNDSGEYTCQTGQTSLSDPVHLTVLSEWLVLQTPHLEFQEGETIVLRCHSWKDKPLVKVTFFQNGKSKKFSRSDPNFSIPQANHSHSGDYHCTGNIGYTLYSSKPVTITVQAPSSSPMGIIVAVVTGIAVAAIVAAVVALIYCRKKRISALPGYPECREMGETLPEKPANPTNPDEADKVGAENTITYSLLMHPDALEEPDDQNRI", "assay": "in vivo receptor occupancy on peripheral B cells of human subjects after infusion of 100 mg BI-1206 (preliminary clinical data)", "data": [{"substance": "BI-1206 (antibody)", "values": [{"measurement": "receptor occupancy", "value": 100, "unit": "%"}]}]}
